# From patent US8673848 (Novartis, dated 2014)
# Bridges are numbered along the chain shown (N, C = ends). [ ]: non-standard residue; d: D form. pGlu = O=C1CC[C@@H](C(=O)O)N1; Nle = CCCC[C@H](N)C(=O)O; Dab = NCC[C@H](N)C(=O)O
# T1: human APJ receptor (hAPJ) (human, UniProt P35414 1-380)
# T1 sequence (looked up): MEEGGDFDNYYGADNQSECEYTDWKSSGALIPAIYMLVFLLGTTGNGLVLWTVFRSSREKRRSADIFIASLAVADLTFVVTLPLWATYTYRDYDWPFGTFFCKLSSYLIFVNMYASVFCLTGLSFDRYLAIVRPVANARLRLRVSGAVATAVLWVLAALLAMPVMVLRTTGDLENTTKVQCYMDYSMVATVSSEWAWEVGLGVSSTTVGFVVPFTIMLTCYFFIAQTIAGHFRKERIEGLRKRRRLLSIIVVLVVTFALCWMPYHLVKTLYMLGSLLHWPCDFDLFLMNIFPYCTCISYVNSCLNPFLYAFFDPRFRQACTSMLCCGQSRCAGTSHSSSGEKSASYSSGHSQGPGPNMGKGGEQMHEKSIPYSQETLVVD
# B1: Example 38: pE-R-P-R-L-C-H-E-G-P-Nle-C-F-OH (peptide)
# peptide: [pGlu]RPRLCHEGP[Nle]CF-OH
# modifications: disulfide 6-12
# SMILES: CCCC[C@@H]1NC(=O)[C@@H]2CCCN2C(=O)CNC(=O)[C@H](CCC(=O)O)NC(=O)[C@H](Cc2c[nH]cn2)NC(=O)[C@@H](NC(=O)[C@H](CC(C)C)NC(=O)[C@H](CCCNC(=N)N)NC(=O)[C@@H]2CCCN2C(=O)[C@H](CCCNC(=N)N)NC(=O)[C@@H]2CCC(=O)N2)CSSC[C@@H](C(=O)N[C@@H](Cc2ccccc2)C(=O)O)NC1=O
# B2: Example 39: pE-R-P-R-L-C-H-K-D-P-Nle-C-F-OH (peptide)
# peptide: [pGlu]RPRLCHKDP[Nle]CF-OH
# modifications: disulfide 6-12
# SMILES: CCCC[C@@H]1NC(=O)[C@@H]2CCCN2C(=O)[C@H](CC(=O)O)NC(=O)[C@H](CCCCN)NC(=O)[C@H](Cc2c[nH]cn2)NC(=O)[C@@H](NC(=O)[C@H](CC(C)C)NC(=O)[C@H](CCCNC(=N)N)NC(=O)[C@@H]2CCCN2C(=O)[C@H](CCCNC(=N)N)NC(=O)[C@@H]2CCC(=O)N2)CSSC[C@@H](C(=O)N[C@@H](Cc2ccccc2)C(=O)O)NC1=O
# B3: Example 35: pE-R-D-R-L-C-H-K-G-P-Nle-C-F-OH (peptide)
# peptide: [pGlu]RDRLCHKGP[Nle]CF-OH
# modifications: disulfide 6-12
# SMILES: CCCC[C@@H]1NC(=O)[C@@H]2CCCN2C(=O)CNC(=O)[C@H](CCCCN)NC(=O)[C@H](Cc2c[nH]cn2)NC(=O)[C@@H](NC(=O)[C@H](CC(C)C)NC(=O)[C@H](CCCNC(=N)N)NC(=O)[C@H](CC(=O)O)NC(=O)[C@H](CCCNC(=N)N)NC(=O)[C@@H]2CCC(=O)N2)CSSC[C@@H](C(=O)N[C@@H](Cc2ccccc2)C(=O)O)NC1=O
# B4: Example 36: pE-R-P-F-L-C-H-K-G-P-Nle-C-F-OH (peptide)
# peptide: [pGlu]RPFLCHKGP[Nle]CF-OH
# modifications: disulfide 6-12
# SMILES: CCCC[C@@H]1NC(=O)[C@@H]2CCCN2C(=O)CNC(=O)[C@H](CCCCN)NC(=O)[C@H](Cc2c[nH]cn2)NC(=O)[C@@H](NC(=O)[C@H](CC(C)C)NC(=O)[C@H](Cc2ccccc2)NC(=O)[C@@H]2CCCN2C(=O)[C@H](CCCNC(=N)N)NC(=O)[C@@H]2CCC(=O)N2)CSSC[C@@H](C(=O)N[C@@H](Cc2ccccc2)C(=O)O)NC1=O
# B5: Example 37: pE-R-P-R-K-C-H-K-G-P-Nle-C-F-OH (peptide)
# peptide: [pGlu]RPRKCHKGP[Nle]CF-OH
# modifications: disulfide 6-12
# SMILES: CCCC[C@@H]1NC(=O)[C@@H]2CCCN2C(=O)CNC(=O)[C@H](CCCCN)NC(=O)[C@H](Cc2c[nH]cn2)NC(=O)[C@@H](NC(=O)[C@H](CCCCN)NC(=O)[C@H](CCCNC(=N)N)NC(=O)[C@@H]2CCCN2C(=O)[C@H](CCCNC(=N)N)NC(=O)[C@@H]2CCC(=O)N2)CSSC[C@@H](C(=O)N[C@@H](Cc2ccccc2)C(=O)O)NC1=O
# B6: Example 40: pE-R-P-E-L-C-H-K-G-P-Nle-C-F-OH (peptide)
# peptide: [pGlu]RPELCHKGP[Nle]CF-OH
# modifications: disulfide 6-12
# SMILES: CCCC[C@@H]1NC(=O)[C@@H]2CCCN2C(=O)CNC(=O)[C@H](CCCCN)NC(=O)[C@H](Cc2c[nH]cn2)NC(=O)[C@@H](NC(=O)[C@H](CC(C)C)NC(=O)[C@H](CCC(=O)O)NC(=O)[C@@H]2CCCN2C(=O)[C@H](CCCNC(=N)N)NC(=O)[C@@H]2CCC(=O)N2)CSSC[C@@H](C(=O)N[C@@H](Cc2ccccc2)C(=O)O)NC1=O
# B7: Example 34: pE-R-K-R-L-C-H-K-G-P-Nle-C-F-OH (peptide)
# peptide: [pGlu]RKRLCHKGP[Nle]CF-OH
# modifications: disulfide 6-12
# SMILES: CCCC[C@@H]1NC(=O)[C@@H]2CCCN2C(=O)CNC(=O)[C@H](CCCCN)NC(=O)[C@H](Cc2c[nH]cn2)NC(=O)[C@@H](NC(=O)[C@H](CC(C)C)NC(=O)[C@H](CCCNC(=N)N)NC(=O)[C@H](CCCCN)NC(=O)[C@H](CCCNC(=N)N)NC(=O)[C@@H]2CCC(=O)N2)CSSC[C@@H](C(=O)N[C@@H](Cc2ccccc2)C(=O)O)NC1=O
# Target: T1, human APJ receptor (hAPJ)
# Assay: cell-based or functional assay
row,hAPJ Ca2+ Flux EC50 [nM],Binder
1,182,B1
2,8.2,B2
3,11.1,B3
4,747,[pGlu]RPRL[Dab]HFGP[Nle]D-Phenethylamine (lactam 6-12) [Example 4: pE-R-P-R-L-Dab-H-F-G-P-Nle-D-Phenethylamine]
5,7.36,B4
6,1.4,B5
7,7.99,B6
8,3.21,B7
